{"source": "patent US20110268668A1", "about": "“PROCESS FOR NEBULIZING AQUEOUS COMPOSITIONS CONTAINING HIGHLY CONCENTRATED INSULIN” (priority 1997, published 2011)", "molecules": {"B1": {"name": "manganese superoxide dismutase (protein, UniProt P04179 25-222, looked up)", "Superoxide dismutase [Mn], …": "KHSLPDLPYDYGALEPHINAQIMQLHHSKHHAAYVNNLNVTEEKYQEALAKGDVTAQIALQPALKFNGGGHINHSIFWTNLSPNGGGEPKGELLEAIKRDFGSFDKFKEKLTAASVGVQGSGWGWLGFNKERGHLQIAACPNQDPLQGTTGLIPLLGIDVWEHAYYLQYKNVRPDYLKAIWNVINWENVTERYMACKK", "notes": "3.3 mg/mL of manganese superoxide dismutase (MnSOD) in phosphate-buffered saline"}}, "key": {"[1]": {"test": "Inhalable proportion of RESPIMAT spray mist in Andersen impactor", "assay_type": "physicochemical", "settings": "immunological measurements", "text": "(§1) The effectiveness of a nebulizer can be tested using an in vitro system in which a protein solution is nebulized and the spray mist is caught in a so-called “trap” (see FIG. 1). The activity of the protein in the aerosol reservoir (a) is compared with its activity in the trapped liquid (b), e.g., by means of an immunoassay or using an assay for the biological effectiveness of the protein. This experiment makes it possible to evaluate the degree of destruction of the protein by the nebulizing process. A second parameter of the aerosol quality is the so-called inhalable proportion, which is defined here as the proportion of the mist droplets with a […] median aerodynamic diameter (MMAD) of less than 5.8 μm. The inhalable proportion can be measured using an “Andersen Impactor”. For good protein absorption it is important not only to achieve nebulization without any substantial loss of activity but also to generate an aerosol with a good inhalable proportion (about 60%). […] The effectiveness of a nebulization device can also be tested in an in vivo system; in this case factors such as susceptibility to lung proteases come into play. […] Blood samples arc taken at suitable time intervals and the protein level in the plasma is then measured by immunological or biological methods.\n(§2) In three experiments, 84%, 77%, and 98%, of the immunologically identifiable interferon, based on the starting solution, were found in the trap solution (b). […] The proportion of particles less than 5.8 μm in size (“inhalable proportion”) was measured. […]\nIn this experiment, the reservoir (a) of the RESPIMAT® device was filled with 3.3 mg/mL of manganese superoxide dismutase (MnSOD) in phosphate-buffered saline (PBS). […] The precise amount nebulized was determined gravimetrically (measurements in three succeeding tests: 12.8, 13.7, and 14.3 mg). […] MnSOD was determined in the reservoir solution and in the solution caught in the trap, immunologically using an ELISA and enzymatically by the reduction in the quantity of superoxide after a xanthine/xanthine oxidase reaction. […]"}, "[2]": {"test": "In vitro RESPIMAT nebulization, trap recovery of interferon omega by ELISA", "text": "as §1\n(§3) The device was activated and a volume of about 12.9 μL, (one puff) was nebulized in an air current of 28 l/min. […] Interferon omega was measured in the reservoir solution and in the solution caught in the trap by immunological methods, using an ELISA, and biologically, by inhibiting the destruction of encephalo-myocarditis virus infected A549 cells. […] However, additional biological measurements are very important as they are a particularly sensitive and therapeutically relevant method of quantifying protein destruction.\nas §2"}, "[3]": {"tested_on": "neopterin", "test": "In vivo test in dog: serum neopterin after interferon omega by RESPIMAT inhalation vs intravenous", "protocol": "Interferon omega was administered by inhalation and intravenous route in separate experiments on the same dog. The blood levels of interferon were measured immunologically and biologically at different times. In addition, the neopterin level in the blood was measured. Neopterin is a marker for immune activation; it is released by macrophages after interferon stimulation [see Fuchs et al., “Neopterin, Biochemistry and Clinical Use as a Marker For Cellular Immune Reactions”, Int. Arch. Allergy Appl. Immunol. 101: 1-6 (1993)]. Measurement of the neopterin level serves to quantify interferon activity.\nThe administration of interferon to the dog was carried out under pentobarbital anesthetic after previous basic sedation. The animal was intubated and subjected to artificial ventilation (volume-controlled respiration: volume per minute 4 L/min, rate 10 breaths/min). A total of 20 puffs were delivered by the RESPIMAT® device. Each puff was given at the start of an inward breath. After the breathing in phase there were five seconds gap before breathing out. […] Interferon omega was measured in heparin plasma by immunological methods using an ELISA and by biological methods by the inhibition of the destruction of encephalo-myocarditis virus infected A549 cells. Serum neopterin was determined by immunology. […]"}, "[4]": {"tested_on": "encephalo-myocarditis virus infected A549 cells", "test": "In vitro RESPIMAT nebulization, trap recovery of interferon omega by biological assay (inhibiting destruction of virus-infected cells)", "assay_type": "cell-based", "settings": "same solutions", "text": "as §1, §3, §2"}, "[5]": {"tested_on": "blood glucose level", "test": "In vivo test in dog: blood glucose after inhaled highly concentrated insulin solution from RESPIMAT", "settings": "anesthetized dog; six puffs of highly concentrated insulin solution from RESPIMAT; FIG. 5", "protocol": "The insulin was administered to the dog anesthetized with pentobarbital after previously receiving basic sedation. The animal was intubated and ventilated as before. A total of six puffs of insulin solution were delivered from the RESPIMAT® device. Each puff was administered at the start of an inward breath. Between the breathing in phase and the breathing out phase there was a gap of 5 seconds. Before the next administration of insulin, two breath cycles were left with no intervention. Blood was taken one hour before administration, at the same time as administration and at various times thereafter over […]. The blood glucose level was measured in the fresh blood using the method of Trasch, Koller, and Tritscher (Klein. Chem. 30; 969 [1984]) using a REFLETRON® device made by Boehringer Mannheim."}, "[6]": {"test": "Viscosity of aerosol preparation (Ostwald viscosimeter)", "assay_type": "physicochemical", "settings": "aerosol preparation with about 35 mg/mL of insulin, pH 7.4", "protocol": "Higher viscosity solutions of macromolecules with a viscosity of up to 1100×10^−6 Pa·s are preferred. With such solutions, an inhalable proportion of droplets containing an active substance of about 60% is obtained. The limiting viscosity numbers given were detected using an Ostwald viscosimeter using the method known from the literature. For comparison, the viscosity of water is 894×10^−6 Pa·s (measured at 25° C.).\nThe aerosol preparation thus produced has a concentration of about 35 mg/mL of insulin, the viscosity of the solution being about 1020×10^−6 Pa·s."}, "[7]": {"test": "In vitro RESPIMAT nebulization, MnSOD enzymatic activity (reduction of superoxide after xanthine/xanthine oxidase reaction)", "assay_type": "biochemical", "settings": "3.3 mg/mL MnSOD in PBS", "protocol": "In this experiment, the reservoir (a) of the RESPIMAT® device was filled with 3.3 mg/mL of manganese superoxide dismutase (MnSOD) in phosphate-buffered saline (PBS). The device was operated and a volume of about 13 μL (one puff) was nebulized in an air current of 28 L/min. The precise amount nebulized was determined gravimetrically (measurements in three succeeding tests: 12.8, 13.7, and 14.3 mg). The nebulized solution was caught in a trap (b). This trap contained 20 mL of PBS. In addition, 2 mL of 5% bovine serum albumin was added to stabilize proteins in the trap. MnSOD was determined in the reservoir solution and in the solution caught in the trap, immunologically using an ELISA and enzymatically by the reduction in the quantity of superoxide after a xanthine/xanthine oxidase reaction. In three tests, 78%, 89%, and 83% of the immunologically identifiable MnSOD of the nebulized solution were measured in the trapped solution (b). […] The inhalable proportion (immunological measurements) was 61%."}, "[8]": {"test": "In vitro RESPIMAT nebulization, trap recovery of MnSOD by ELISA", "settings": "3.3 mg/mL MnSOD in PBS, one puff, 28 L/min, three tests", "text": "The effectiveness of a nebulizer can be tested using an in vitro system in which a protein solution is nebulized and the spray mist is caught in a so-called “trap” (see FIG. 1). The activity of the protein in the aerosol reservoir (a) is compared with its activity in the trapped liquid (b), e.g., by means of an immunoassay or using an assay for the biological effectiveness of the protein. This experiment makes it possible to evaluate the degree of destruction of the protein by the nebulizing process. A second parameter of the aerosol quality is the so-called inhalable proportion, which is defined here as the proportion of the mist droplets with a […] median aerodynamic diameter (MMAD) of less than 5.8 μm. The inhalable proportion can be measured using an “Andersen Impactor”. […] Blood samples arc taken at suitable time intervals and the protein level in the plasma is then measured by immunological or biological methods.\nIn this experiment, the reservoir (a) of the RESPIMAT® device was filled with 3.3 mg/mL of manganese superoxide dismutase (MnSOD) in phosphate-buffered saline (PBS). […] The precise amount nebulized was determined gravimetrically (measurements in three succeeding tests: 12.8, 13.7, and 14.3 mg). […] In three tests, 78%, 89%, and 83% of the immunologically identifiable MnSOD of the nebulized solution were measured in the trapped solution (b). […]"}, "[9]": {"settings": "concentrated interferon omega solution 53 mg/mL, four tests"}}, "note": "“And” between values parts separate entries of the source, which are not always exact repeats. Identical values can stand only once."}
{"molecule": "interferon omega", "values": [{"measurement": "inhalable proportion (particles less than 5.8 μm)", "setting": "[1]; 5 mg/mL interferon omega solution, Andersen impactor, 28 l/min", "value": 70, "unit": "%"}, {"measurement": "inhalable proportion", "setting": "[1]; interferon omega formulation with additional human serum albumin (0.5%)", "value": 67, "unit": "%"}, {"measurement": "immunologically identifiable interferon found in the trap solution, based on the starting solution", "setting": "[2]; 5 mg/mL formulation with additional human serum albumin (0.5%), three tests", "value": "79% and 83%"}, {"measurement": "immunologically identifiable interferon found in the trap solution, based on the starting solution", "setting": "[2]; 5 mg/mL interferon omega in 50 mM trisodium citrate, 150 mM NaCl, pH 5.5, one puff, air current 28 l/min, ELISA, three experiments", "value": "84% and 77% and 98%"}, {"measurement": "immunologically identifiable interferon found in the trapped solution, based on the starting solution", "setting": "[2]; [9]", "value": "100% and 60% and 68% and 72%"}, {"measurement": "neopterin levels after inhalation compared with intravenous administration of 0.32 mg of interferon", "setting": "[3]; 20 puffs RESPIMAT, 5 mg/mL (about 1.28 mg) vs 0.32 mg i.v., FIG. 3", "value": "significantly higher and longer lasting levels"}, {"measurement": "serum neopterin level after administration by inhalation", "setting": "[3]; 20 puffs from RESPIMAT, 5 mg/mL solution (about 1.28 mg)", "value": "very high serum neopterin level"}, {"measurement": "biologically active interferon in the trapped solution", "setting": "[4]; 5 mg/mL formulation with additional human serum albumin (0.5%)", "value": "60% and 54% and 66%"}, {"measurement": "recovery of the biologically identifiable interferon in the trapped solution", "setting": "[4]; 5 mg/mL interferon omega in 50 mM trisodium citrate, 150 mM NaCl, pH 5.5, three experiments", "value": "54% and 47% and 81%"}, {"measurement": "recovery of the biologically identifiable interferon in the trapped solution", "setting": "[4]; [9]", "value": "95% and 98% and 61% and 83%"}]}
{"molecule": "insulin", "values": [{"measurement": "blood glucose level after administration of insulin by inhalation", "setting": "[5]", "value": "lowering of blood glucose level"}, {"measurement": "viscosity of the solution", "setting": "[6]", "value": "about 1020 ×10^−6 Pa·s"}]}
{"molecule": "B1", "values": [{"measurement": "inhalable proportion", "setting": "[1]; 3.3 mg/mL MnSOD in PBS", "value": 61, "unit": "%"}, {"measurement": "loss in enzymatic activity after nebulization", "setting": "[7]", "value": "no measurable loss"}, {"measurement": "immunologically identifiable MnSOD of the nebulized solution measured in the trapped solution", "setting": "[8]", "value": "78% and 89% and 83%"}]}
